This is an account of results in patent publication US20060099646A1, “Bret assay” (priority 2002, published 2006).

A short description of data set [1]: Precipitation / stability of diluted DeepBlueC substrate solution. Format: physicochemical. As to the method: One of the problems associated with setting up an assay, such as, e.g. a high through-put screening (HTS) assay, is to prepare a suitable solution of the substrate, DeepBlueC™. If the stock solution of DeepBlueC™ is diluted to the relevant concentration for use in a BRET assay in D-PBS as recommended, it will form a precipitate within 10 to 20 minutes, making it virtually impossible to use for a HTS assay.
(§1) Assay: • 1. Dilution of DeepBlueC to 100 μM in 40% ethanol in D-PBS with 1000 mg/l L-Glucose (#14287) (light sensitive!!). The DeepBlueC™ stock solution comprises 1 mM DeepBlueC™ in 100% v/v EtOH.
(§2) The dilution of DeepBlueC in 40% ethanol/buffer is essential for the stability of DeepBlueC. If DeepBlueC is diluted in buffer alone, it will precipitate within 10 to 20 minutes, making it virtually impossible to use the assay in HTS mode. […] 100 μl of resuspended cells were transferred into wells in 96-well white optiplate plate • 3. 12 μl agonist was added. • 4. 5 μl of diluted DeepBlueC/well was added, and the plate was read.

A further data set concerns renilla luciferase. The experiment in a line: Light emission from renilla luciferase after addition of DeepBlueC solution (FIG. 3). The method, then:
as §2

The target in a further data set is T1, NK-1/Rluc receptor (Homo sapiens, UniProt P25103).
T1 construct: expressed in transfected cells; host or cells: COS7
T1 sequence (P25103 whole entry): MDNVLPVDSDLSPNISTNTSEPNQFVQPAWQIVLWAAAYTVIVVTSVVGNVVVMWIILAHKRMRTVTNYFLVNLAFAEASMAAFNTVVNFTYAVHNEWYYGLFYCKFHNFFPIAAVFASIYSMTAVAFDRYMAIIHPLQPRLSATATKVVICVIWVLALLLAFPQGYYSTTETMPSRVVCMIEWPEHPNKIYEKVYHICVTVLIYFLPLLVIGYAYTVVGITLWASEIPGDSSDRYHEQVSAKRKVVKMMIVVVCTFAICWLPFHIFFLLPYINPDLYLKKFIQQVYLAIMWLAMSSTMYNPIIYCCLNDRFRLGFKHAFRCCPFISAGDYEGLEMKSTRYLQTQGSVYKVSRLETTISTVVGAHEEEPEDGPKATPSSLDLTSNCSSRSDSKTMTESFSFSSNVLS
The experiment in a line: NK-1 receptor internalization assay. The class given is cell-based. The settings on record: COS7 cells, co-expressed with NK-1/Rluc; 125I-SP 10 min at 37 C; versus WT β-arrestin; FIG. 1. The method, then: COS7 cells in 75 cm^2 flask (3×10^6 cells/flask) were used for transfection. NK-1/Rluc receptor (2 μg cDNA/flask) was coexpressed together with 6 μg GFP/β-arrestin 2, 6 μg GFP^2/β-arrestin R169E, 6 μg GFP^2/β-arrestin Lys 373 stop or 6 μg GFP^2/β-arrestin R393E, R395E. At the end of transfection period (3-5 hours), cells were washed twice with PBS, trypsinased and plated at a density of 2.5×10^5 cells per well in 12-well plates. After 48 hours, cells were washed once with assay medium (HEPES-modified DMEM with 0.1% BSA, pH 7.4) and incubated in assay medium for at least 1 hour before being incubated with ^125I-labeled SP (30000 cpm/well) in 0.5 ml assay medium 10 min at 37 C. Cells were then transferred onto ice and washed twice with ice-cold PBS. Subsequently, the extracellular receptor-associated ligand was removed by washing once with 1 ml of acid solution (50 mM acetic acid and 150 mM NaCl, pH 2.8) for 12 min. The acid wash was collected to determine the surface-bound radioactivity, and the internalized radioactivity was determined after solubilizing the cells in 0.2 M NaOH and 1% SDS (NaOH/SDS) solution. Nonspecific binding for each time point was determined under the same conditions in the presence of 1 μM unlabeled agonist (SP). After subtraction of nonspecific binding, the internalized radioactivity was expressed as a percentage of the total binding.

A further data set addresses T2, β2AR/Rluc receptor (Homo sapiens, UniProt P07550).
T2 construct: expressed in transfected cells; host or cells: COS-7
The experiment in a line: β2AR internalization assay. The settings on record: COS-7 cells, co-expressed with β2AR/Rluc; isopterenol 10 min at 37° C; versus WT β-arrestin; FIG. 1. Format: cell-based. The method, then:
COS-7 cells in 75 cm^2 flask (3×10^6 cells/flask) were used for trasfection. β2AR/Rluc receptor (1.3 μg cDNA/flask) was coexpressed together with 6.5 μg GFP^2/β-arrestin 2, 6.5 μg GFP^2/β-arrestin R169E, 6.5 μg GFP^2/β-arrestin Lys 373 stop or 6.5 μg GFP^2/β-arrestin R393E, R395E. Receptor internalization assay was based on protocol described by Barak and Caron J Recept Signal Transduct Res 1995 January-March;15(14):677-90. At the end of transfection period (3-5 hours), cells were washed twice with PBS, trypsinesed and plated at a density of 2.5×10^5 cells per well in 12-well plates. After 48 hours, cells were washed once with assay medium (HEPES-modified DMEM with 0.1% BSA, pH 7.4) and serum-starved in the same medium for additional 2-3 hours before being stimulated with […] isopterenol for 10 min at 37° C. Stimulation was stopped by washing the cells with ice-cold PBS. Cells were then subjected to [^125I]-pindolol binding at 4° C. for 3 h and the fraction of internalized receptors determined relative to unstimulated cells. Non-specific binding was determined under the same conditions in the presence of 1 μM pindolol.

The target of a further data set is T3, β2AR receptor (Homo sapiens, UniProt P07550).
T3 construct: expressed in transfected cells
The experiment in a line: BRET assay, β2AR-Rluc / β-arrestin-2-GFP. The class given is cell-based. Conditions: β2AR receptor (class A) coexpressed with β-arrestin mutant; versus WT; FIG. 2. As to the method: (§3) Cell Preparation for BRET Assay: • 1. 48 hrs after transfection with 2 μg receptor-Rluc DNA (e.g. NK1-Rluc or β2AR-Rluc) and 5 μg β-arrestin-2 DNA (e.g. the R393E; R395E mutant) (for assays with GRK also 2 μg GRK DNA, e.g. GRK-5) media was removed and cell washed 1× with PBS • 2. 1 ml 1× trypsin (T75 flask) was added and incubated 3-5 min at 37 C • 3. 10 mL complete media was added. • 4. Cells were transferred to tube and spun down (5 min, 800 rpm) • 5. Media was removed, and cells resuspended in 10 ml PBS and counted, spun down (5 min, 800 rpm) • 6. Resuspended in D-PBS with 1000 mg/l L-Glucose (#14287) to a density of 2×10^6 cells/ml • 7. Cells were left at room temperature for at least 30 min, to stabilize readings.
as §1
(§4) The dilution of DeepBlueC in 40% ethanol/buffer is essential for the stability of DeepBlueC. If DeepBlueC is diluted in buffer alone, it will precipitate within 10 to 20 minutes, making it virtually impossible to use the assay in HTS mode. […] 100 μl of resuspended cells were transferred into wells in 96-well white optiplate plate • 3. […] 5 μl of diluted DeepBlueC/well was added, and the plate was read.
(§5) Antagonist: • 1. […] 6 μl of diluted DeepBlueC/well was added, and the plate read.
(In general: Bioluminescence resonance energy transfer reports proximity on the nanometre scale.)

The next data set addresses T4, NK1 receptor (Homo sapiens, UniProt P25103).
T4 construct: expressed in transfected cells
The experiment in a line: BRET assay, NK1-Rluc / β-arrestin-2-GFP. Format: cell-based. Conditions: NK1 receptor (class B) coexpressed with β-arrestin mutant; versus WT; FIG. 2. As to the method: as §3, §1, §4, §5

T4 sequence (P25103 whole entry, species assumed): as the sequence (P25103 whole entry) above

Turning to `O=c1c(Cc2ccccc2)nc2c(Cc3ccccc3)[nH]c(-c3ccccc3)cn1-2` [DeepBlueC], the “stability of diluted solution” value in data set [1] (diluted in 40% ethanol in D-PBS with 1000 mg/l L-Glucose) is “stable for hours”. In addition, in data set [1] (stock solution diluted in D-PBS / buffer alone, no ethanol), the “time to formation of precipitate” value is 10 to 20 min. The “stability of light emission signal” value was “rapidly decreases” with renilla luciferase (DeepBlueC dissolved in buffer with 0% ethanol), “rapidly decreases” with renilla luciferase (DeepBlueC dissolved in buffer with 6% ethanol) and “stable for the duration of the experiment” in the data set on renilla luciferase (DeepBlueC dissolved in buffer with 40% ethanol).
As for “human β-arrestin-2 373 stop mutant: truncated human β-arrestin-2 lacking clathrin and/or AP2 binding sites; used as GFP fusion”, the “internalization of the NK1-R” value with NK-1/Rluc receptor is recorded as “inhibiting the internalization”. Besides, the “internalization of the β2AR” value in the data set with β2AR/Rluc receptor is “inhibiting the internalization”. For the same compound, the entries for the “specific BRET ratio (BRET signal)” value in the data set with β2AR receptor and with NK1 receptor were “increasing the BRET signal significantly” and “the effect is less pronounced”, respectively.
Turning to “human β-arrestin-2 R393E; R395E mutant: human β-arrestin-2 wherein amino acids 393 and 395 have been changed from arginine to glutamic acid; used as GFP fusion”, in the data set with NK-1/Rluc receptor, the “internalization of the NK1-R” value is reported as “inhibiting the internalization”. Further, the “internalization of the β2AR” value in the data set with β2AR/Rluc receptor is “inhibiting the internalization”. In addition, the “specific BRET ratio (BRET signal)” value in the data set with β2AR receptor was “increasing the BRET signal significantly”; in the data set with NK1 receptor it was “the effect is less pronounced”.
